According to PMC7948506:

How the values were obtained:
[1] = target: Glycine max (soybean) heme oxygenase-1 (GmHO-1) (Glycine max (soybean)); assay: ITC; 800 uM Fd in the syringe into 40 uM apo-GmHO-1 (no heme) in the cell; 25 °C; 20 mM Tris-HCl pH 7.0, 20 mM NaCl; one set of sites model; single measurement
[2] = target: Glycine max (soybean) heme oxygenase-1 (GmHO-1) (Glycine max (soybean)); assay: ITC; 800 uM Fd in the syringe into 40 uM holo-GmHO-1 (heme bound) in the cell; 25 °C; 20 mM Tris-HCl pH 7.0, 20 mM NaCl; one set of sites model; single measurement

Kd [1]: 14.7 µM | dH [1]: 3.3 kcal/mol | stoichiometry N [1]: 1 | Kd [2]: 5.3 µM | dH [2]: 2.6 kcal/mol | stoichiometry N [2]: 1
Substance: soybean ferredoxin (Fd) (natural protein)
